The text below walks through data of paper PMC6405639.

The term EC50 denotes the concentration giving half of the maximal effect.

This assay addresses 5(6)-TAMRA-Ahx(5-24)NPY (porcine). Put plainly: fluorescence polarisation; homogenous binding assay; 5 nM 5(6)-TAMRA-Ahx(5-24)NPY with increasing concentrations of affinity purified Y2R_cysteine_deficient in Brij-58 micelles in binding buffer, 60 min, room temperature; fall of fluorescence in the S-plane; the paper says that the EC50 constitutes the Kd. For orientation: In fluorescence polarisation assays a small probe gives low polarisation when free and higher when bound to something large.

B1: Y2R_cysteine_deficient with C-terminal deca-histidine-tag (cell-free expressed) (receptor)
chain: MGPIGAEADENQTVEEMKVEQYGPQTTPRGELVPDPEPELIDSTKLIEVQVVLILAYASIILLGVIGNSLVIHVVIKFKSMRTVTNFFIANLAVADLLVNTLSLPFTLTYTLMGEWKMGPVLCHLVPYAQGLAVQVSTITLTVIALDRHRSIVYHLESKISKRISFLIIGLAWGISALLASPLAIFREYSLIEIIPDFEIVACTEKWPGEEKSIYGTVYSLSSLLILYVLPLGIISFSYTRIWSKLKNHVSPGAANDHYHQRRQKTTKMLVAVVVVFAVSWLPLHAFQLAVDIDSQVLDLKEYKLIFTVFHIIAMASTFANPLLYGWMNSNYRKAFLSAFRAEQRLDAIHSEVSVTFKAKKNLEVRKNSGPNDSFTEATNV
In turn, B1 gave an EC50 of 49 nM.
